Entries after “also recorded” stand apart in the source; their conditions may differ.
B1: LGALS3BP: Soluble galectin 3 binding protein, highly glycosylated secreted protein; recombinant form tested (protein, UniProt Q08380 19-585, looked up)
Galectin-3-binding protein: VNDGDMRLADGGATNQGRVEIFYRGQWGTVCDNLWDLTDASVVCRALGFENATQALGRAAFGQGSGPIMLDEVQCTGTEASLADCKSLGWLKSNCRHERDAGVVCTNETRSTHTLDLSRELSEALGQIFDSQRGCDLSISVNVQGEDALGFCGHTVILTANLEAQALWKEPGSNVTMSVDAECVPMVRDLLRYFYSRRIDITLSSVKCFHKLASAYGARQLQGYCASLFAILLPQDPSFQMPLDLYAYAVATGDALLEKLCLQFLAWNFEALTQAEAWPSVPTDLLQLLLPRSDLAVPSELALLKAVDTWSWGERASHEEVEGLVEKIRFPMMLPEELFELQFNLSLYWSHEALFQKKTLQALEFHTVPFQLLARYKGLNLTEDTYKPRIYTSPTWSAFVTDSSWSARKSQLVYQSRRGPLVKYSSDYFQAPSDYRYYPYQSFQTPQHPSFLFQDKRVSWSLVYLPTIQSCWNYGFSCSSDELPVLGLTKSGGSDRTIAYENKALMLCEGLFVADVTDFEGWKAAIPSALDTNSSKSTSSFPCPAGHFNGFRTVIRPFYLTNSSGVD
B2: TFPI2: isolated and purified molecular product of the gene TFPI2 (protein, UniProt P48307 23-235, looked up)
Tissue factor pathway …: DAAQEPTGNNAEICLLPLDYGPCRALLLRYYYDRYTQSCRQFLYGGCEGNANNFYTWEACDDACWRIEKVPKVCRLQVSVDDQCEGSTEKYFFNLSSMTCEKFFSGGCHRNRIENRFPDEATCMGFCAPKKIPSFCYSPKDEGLCSANVTRYYFNPRYRTCDAFTYTGCGGNDNNFVSREDCKRACAKALKKKKKMPKLRFASRIRKIRKKQF
B3: UDP-N-acetyl-α-D-galactosamine:polypeptide N-acetylgalactosaminyltransferase 1 (protein, UniProt Q10472 1-559, looked up)
Polypeptide …: MRKFAYCKVVLATSLIWVLLDMFLLLYFSECNKCDEKKERGLPAGDVLEPVQKPHEGPGEMGKPVVIPKEDQEKMKEMFKINQFNLMASEMIALNRSLPDVRLEGCKTKVYPDNLPTTSVVIVFHNEAWSTLLRTVHSVINRSPRHMIEEIVLVDDASERDFLKRPLESYVKKLKVPVHVIRMEQRSGLIRARLKGAAVSKGQVITFLDAHCECTVGWLEPLLARIKHDRRTVVCPIIDVISDDTFEYMAGSDMTYGGFNWKLNFRWYPVPQREMDRRKGDRTLPVRTPTMAGGLFSIDRDYFQEIGTYDAGMDIWGGENLEISFRIWQCGGTLEIVTCSHVGHVFRKATPYTFPGGTGQIINKNNRRLAEVWMDEFKNFFYIISPGVTKVDYGDISSRVGLRHKLQCKPFSWYLENIYPDSQIPRHYFSLGEIRNVETNQCLDNMARKENEKVGIFNCHGMGGNQVFSYTANKEIRTDDLCLDVSKLNGPVTMLKCHHLKGNQLWEYDPVKLTLQHVNSNQCLDKATEEDSQVPSIRDCNGSRSQQWLLRNVTLPEIF
notes: recombinant protein product of the GALNT1 gene, secreted factor of marrow stromal cells
B4: CRLF1: isolated and purified molecular product of the gene CRLF1 (protein, UniProt O75462 38-422, looked up)
Cytokine receptor-like factor …: AHTAVISPQDPTLLIGSSLLATCSVHGDPPGATAEGLYWTLNGRRLPPELSRVLNASTLALALANLNGSRQRSGDNLVCHARDGSILAGSCLYVGLPPEKPVNISCWSKNMKDLTCRWTPGAHGETFLHTNYSLKYKLRWYGQDNTCEEYHTVGPHSCHIPKDLALFTPYEIWVEATNRLGSARSDVLTLDILDVVTTDPPPDVHVSRVGGLEDQLSVRWVSPPALKDFLFQAKYQIRYRVEDSVDWKVVDDVSNQTSCRLAGLKPGTVYFVQVRCNPFGIYGSKKAGIWSEWSHPTAASTPRSERPGPGGGACEPRGGEPSSGPVRRELKQFLGWLKKHAYCSNLSFRLYDQWRAWMQKSHKTRNQDEGILPSGRRGTARGPAR

Legend:
[1] = test system: colitic mice (TNBS colitis); assay: TNBS colitis in mice, colon histopathology; format: in vivo; conditions: 3 μg protein twice over 24 h; sacrifice at day 2; compared to vehicle (saline)
Experimental: FIG. 6: Administered MFAP5 and LGALS3BP protect mice from developing TNBS colitis. Mice were presensitized via the skin with 1% TNBS one week prior to intra-rectal administration of 3 mg of TNBS per mouse in a mixture of 50% EtOH and 50% sterile water to induce colitis. Mice were treated with 3 μg each of MFAP5, LGALS3BP and GALNT1 twice over a 24 hour period, once in conjunction with the TNBS administration and once 24 hours later. Mice were then sacrificed at day 2 and tissue collected for analysis. As expected, mice treated with vehicle (saline) developed extensive inflammation of the colon with loss of crypts and frank necrosis of the intestinal epithelium.
MFAP5, LGALS3BP and PENK all protected the colonic epithelium from the hallmark features of TNBS colitis: necrosis, inflammatory infiltrate and loss of crypts. Especially at the microscopic level, the tissue of the MFAP5, LGALS3BP and PENK treated animals looked mostly normal with minor foci of inflammation and edema.

[2] = test system: BALB/cJ mice challenged with a sub-lethal dose of LPS; assay: In vivo LPS assay, sub-lethal LPS model: serum cytokines and lung histology; conditions: for serum IL-10 levels / serum TNF-α: 3 μg protein or 1 mL 1×BMSC-CM IP, twice, 100 μg LPS, 48 h later, compared to saline
Experimental: FIG. 8: In vivo hit screen and survival study. (a) Schematic of the in vivo LPS assay. Proteins were administered intraperitoneal (IP) at the concentration that elicited the strongest effect in vitro, followed by IP administration of LPS in conjunction with a second dose of the proteins 16 hours later. Two days after the combined LPS and second protein dose, the mice were sacrificed and assessed for changes in serum cytokines and tissue histology. (b) Serum IL-10 levels of BALB/cJ mice subjected to the in vivo LPS assay. * p<0.001 compared to saline. (c) Serum TNF-α levels of BALB/cJ mice subjected to the in vivo LPS assay. * p<0.001 compared to saline, ** p<0.05 compared to BMSC-CM. (d) Representative micrographs of lung tissue from mice subjected to the in vivo LPS assay stained with hematoxylin and eosin. (e) Survival of mice subjected to a lethal dose of LPS i.p. (350 μg) concurrently with i.p. saline vehicle (bold dark blue line), 5 μg Anti-TNF-α antibody (thin dark blue line), 4 μg PENK (bold light blue line) or 4 μg MFAP5 (thin light blue line). Scale bar=200 μm.
All procedures were performed in accordance with the animal rights policies of the Massachusetts General Hospital Subcommittee on Research Animal Care. For the sub-lethal LPS model, eight week old female BALB/cJ mice (n≧3) (Jackson Laboratories, Bar Harbor, Me.) were administered an initial dose of either vehicle or one of the experimental therapies IP: 200 μL of saline (vehicle), or 3 μg of protein (e.g., GALNT1, LGALS3BP, MFAP5 or PENK) diluted in 200 μL of saline, or 1 mL of 1×BMSC-CM. 16 hours later, mice received a second dose of either vehicle or therapy in conjunction with a dose of 100 μg of LPS (E. coli 0111:B4; Sigma, St. Louis, Mo.) diluted in physiological saline. 48 hours later, mice were sacrificed and tissue and blood were collected for analysis. Serum was tested for the presence of IL-10 and TNF-α via ELISA and lungs, livers and kidneys of the animals were preserved for hematoxylin and eosin staining. For the lethal LPS model, eight week old female BALB/cJ mice (n≧5) were co-administered a lethal dose of LPS (350 μg LPS in 100 μL physiological saline) and either vehicle (negative control), 5 μg anti-TNF-α (positive control; R&D Systems, Minneapolis, Minn.), 4 μg MFAP5 diluted in 100 μL of physiological saline, or 4 μg of PENK diluted in 100 μL of physiological saline. Mice were monitored for survival for seven days (168 hours).

[3] = test system: human peripheral blood mononuclear cells (PBMCs); assay: PBMC potency assay (IL-10 assay): IL-10 secretion by LPS-stimulated PBMCs, ELISA; format: cell-based; conditions: recombinant molecules diluted in RPMI 1640
Excerpt: FIG. 1: MSC conditioned medium causes peripheral blood mononuclear cells to secrete IL-10 in response to LPS, providing the basis for differential gene expression analysis to identify genes responsible for the increased activity. (a) Generalized schematic of EPS methodology. Protein products are derived from various cell types in the form of conditioned media and screened for activity in an in vitro potency assay. […] Recombinant protein products of the enriched gene list are then screened in a potency assay and the candidates with the highest activity are assessed for activity in vivo. (b) In vitro potency assay. This assay entails incubating primary human peripheral blood mononuclear cells (PBMCs) in the presence of protein products (e.g., conditioned medium from a cell) for 16 hours, followed by stimulation of the PBMCs with LPS for five hours, and measurement of IL-10 secretion into the supernatant via ELISA. (c) Time course of IL-10 expression from PBMCs when incubated with either bone marrow stromal cell conditioned medium (BMSC-CM) or unconditioned medium (DMEM) in the potency assay. (d) Comparison of potency assay activity of conditioned medium from normal human dermal fibroblasts (FB-CM), BMSCs (BMSC-CM) and BMSCs preincubated with LPS prior to conditioning (BMSCLPS-CM). * p<0.001 compared to FB-CM, ** p<0.001 compared to BMSC-CM. (e) Schematic of the differential gene expression comparison strategy to select for genes uniquely expressed at high levels in LPS stimulated MSCs (MSCLPS) compared to MSCs and fibroblasts (FBs). Analysis was then conducted on the genes identified to select for genes that were most likely to be responsible for secreted proteins. MSCLPS, LPS stimulated MSC; FB, fibroblast. […]
Leukocytes were prepared from fresh whole human blood, collected and spun in the presence of Ficoll for 30 minutes at 1500×g. […] The resultant supernatants were collected and analyzed via ELISA for human interleukin-10 (IL-10). […]

[4] = test system: human leukocytes in culture; assay: Cytokine production (IL-10 or IFN-γ) in human leukocytes in culture; format: cell-based; conditions: concentrations within five orders of magnitude of 10 μg/mL
Experimental: Leukocytes were prepared from fresh whole human blood, collected and spun in the presence of Ficoll for 30 minutes at 1500×g. The mononuclear cell layer was transferred to a new tube where it was washed once with RPMI 1640. The mononuclear cells were plated at a density of 1×10^5 per well of a 96-well plate in 50 μL of RPMI 1640 per well. MSC-CM was then immediately added to each well and allowed to incubate in the presence of the mononuclear cells for 16 hours. After incubation, 50 μL of RPMI 1640 containing 10 μg/mL of LPS was added to each well and allowed to incubate for an additional 5 hours. The resultant supernatants were collected and analyzed via ELISA for human interleukin-10 (IL-10). This procedure of incubating leukocytes with MSC-CM to determine IL-10 stimulating activity will be henceforth referred to as the “IL-10 assay”.
Preparations and use of MSC-CM, Fb-CM, LPS-stimulated MSC-CM, leukocytes were as described in Examples 1-3 and the Figures. These conditioned media preparations were added to leukocyte cultures for 16 hours, after which the culture was stimulated with LPS at 10 μg/ml. The medium from this culture was collected 24 hours after LPS stimulation of leukocytes and analyzed using an IFN-γ ELISA.

| Molecule | protection from TNBS colitis (colon histopathology) [1] | serum IL-10 levels [2] | serum TNF-α [2] | increase of IL-10 production compared to 10×MSC-CM [3] | promote IL-10 production or suppress IFN-γ production [4] | lung histology (lung protection) ([2]; hematoxylin and eosin, sub-lethal LPS model, compared to vehicle) |
| --- | --- | --- | --- | --- | --- | --- |
| B1 | protect the mice from developing acute colitis; also recorded: significant attenuation of colitis; also recorded: protected from developing extensive colonic inflammation | no IL-10 response | significantly suppressed | superior to that induced by 10×MSC-CM | either promote IL-10 production or suppress IFN-γ production |  |
| B2 |  |  |  |  | either promote IL-10 production or suppress IFN-γ production |  |
| B3 | not protected from development of colitis | Significantly elevated | not | superior to that induced by 10×MSC-CM | either promote IL-10 production or suppress IFN-γ production | moderate protection |
| B4 |  |  |  |  | either promote IL-10 production or suppress IFN-γ production |  |

— patent US20130052198A1, “ANTI-INFLAMMATORY FACTORS” (THE GENERAL HOSPITAL CORPORATION, priority 2010, published 2013)
